Measured values as given in patent publication CN116836268A.

Target: Cov-S-His (SARS-CoV-2)
Test: SPR, Biacore T200, antibody captured by anti-mouse Fc, Cov-S-His as analyte

| Binder | Kd [nM] |
| --- | --- |
| S4B3VH-h2+L1C9VK-mIgG2a (antibody, V domains shown) VH: QVQLVQSGAEVKKPGSSVKVSCKASGYIFNSYSIHWVRQAPGQGLEWIGAIYPGNGDTSNSQRFKGKATITADKSASTAYMELSSLRSEDTAVYYCARDGYDDSYGLDYWGQGTTVTVSS VL: DIQLTQSPSTLSASVGDRVTITCRASQNIGGWLAWYQQKPGKAPNLLIYQASTLESGVPSRFSGSGSGTEFTLTISSLQAEDFATYHCQQYSGFPWTFGQGTKVEIKR | 5.76 |
| S4B3VH-h1+S4B3VK-h1-mIgG2a (antibody, V domains shown) VH: QVQLVQSGAEVKKPGSSVKVSCKASGYIFNSYSIHWVRQAPGQGLEWIGAIYPGNGDTSNSQRFKGRVTITADKSTSTAYMELSSLRSEDTAVYYCARDGYDDSYGLDYWGQGTTVTVSS VL: DIVMTQSPDSLAVSLGERATINCKASQNVGTNVAWYQQKPGQPPKALIYSASYRYSGVPDRFSGSGSGTDFTLTISSLQAEDVAVYFCQQYNSYPLTFGQGTKLEIKR | 14.5 |
| S4B3VH-h2+S4B3VK-h1-mIgG2a (antibody, V domains shown) VH: QVQLVQSGAEVKKPGSSVKVSCKASGYIFNSYSIHWVRQAPGQGLEWIGAIYPGNGDTSNSQRFKGKATITADKSASTAYMELSSLRSEDTAVYYCARDGYDDSYGLDYWGQGTTVTVSS VL: DIVMTQSPDSLAVSLGERATINCKASQNVGTNVAWYQQKPGQPPKALIYSASYRYSGVPDRFSGSGSGTDFTLTISSLQAEDVAVYFCQQYNSYPLTFGQGTKLEIKR | 23.9 |
| S4B3VH-h1+L1B2VK-mIgG2a (antibody, V domains shown) VH: QVQLVQSGAEVKKPGSSVKVSCKASGYIFNSYSIHWVRQAPGQGLEWIGAIYPGNGDTSNSQRFKGRVTITADKSTSTAYMELSSLRSEDTAVYYCARDGYDDSYGLDYWGQGTTVTVSS VL: DIQMTQSPSSLSASVGDRVTITCRASQNIHNYLDWYQQKPGKAPKLLIYSASSRETGVPSSFSGSGSGTDFTLTISSLQPEDFATYYCQQFQQIPWTFGQGTKVEIKR | 2.86 |
| S4B3VH-h2+L1B2VK-mIgG2a (antibody, V domains shown) VH: QVQLVQSGAEVKKPGSSVKVSCKASGYIFNSYSIHWVRQAPGQGLEWIGAIYPGNGDTSNSQRFKGKATITADKSASTAYMELSSLRSEDTAVYYCARDGYDDSYGLDYWGQGTTVTVSS VL: DIQMTQSPSSLSASVGDRVTITCRASQNIHNYLDWYQQKPGKAPKLLIYSASSRETGVPSSFSGSGSGTDFTLTISSLQPEDFATYYCQQFQQIPWTFGQGTKVEIKR | 3.04 |
| S4B3VH-h1+L1C9VK-mIgG2a (antibody, V domains shown) VH: QVQLVQSGAEVKKPGSSVKVSCKASGYIFNSYSIHWVRQAPGQGLEWIGAIYPGNGDTSNSQRFKGRVTITADKSTSTAYMELSSLRSEDTAVYYCARDGYDDSYGLDYWGQGTTVTVSS VL: DIQLTQSPSTLSASVGDRVTITCRASQNIGGWLAWYQQKPGKAPNLLIYQASTLESGVPSRFSGSGSGTEFTLTISSLQAEDFATYHCQQYSGFPWTFGQGTKVEIKR | 5 |
